Assays:
[1] = target: T1, recombinant MDMX (amino acid residues 1-185) GST fusion protein (UniProt O15151 1-185); assay: fluorescence polarization assay with recombinant GST-MDMX (1-185)
T1 construct: range 1-185; Expressed in E. coli BL21(DE3) from pGEX-4-T-1 and eluted as a GST fusion; GST is placed N-terminally by the usual layout of the vector; also called MDMX-GST; not shown: glutathione S-transferase tag encoded by pGEX-4-T-1
T1 sequence (looked up): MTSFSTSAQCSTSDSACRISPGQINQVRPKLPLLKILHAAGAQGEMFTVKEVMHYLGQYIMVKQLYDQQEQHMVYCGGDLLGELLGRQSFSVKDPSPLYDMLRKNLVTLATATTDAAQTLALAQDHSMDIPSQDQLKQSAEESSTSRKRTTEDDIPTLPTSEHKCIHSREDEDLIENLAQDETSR
Experimental: (§1) Kd's and Kᵢ's were calculated by fitting the data to a single-site binding mode with variable slope (Y=Bottom+(Top−Bottom)/(1+10̂((LogEC50-X)*HillSlope))) using […] PRISM software.

[2] = target: T2, recombinant MDM2 (amino acid residues 1-188) GST fusion protein (UniProt Q00987 1-188); assay: fluorescence polarization assay with recombinant GST-MDM2 (1-188)
T2 construct: range 1-188; Expressed in E. coli BL21(DE3) from pGEX-4-T-1 and eluted as a GST fusion; GST is placed N-terminally by the usual layout of the vector; not shown: glutathione S-transferase tag encoded by pGEX-4-T-1
T2 sequence (Q00987 1-188): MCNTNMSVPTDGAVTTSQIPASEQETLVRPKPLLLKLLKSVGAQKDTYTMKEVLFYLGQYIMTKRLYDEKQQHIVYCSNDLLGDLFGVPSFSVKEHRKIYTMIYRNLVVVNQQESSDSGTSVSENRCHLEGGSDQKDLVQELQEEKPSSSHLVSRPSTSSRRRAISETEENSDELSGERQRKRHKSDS
Experimental: as §1

Binder: H-GSGSSQETASDLAKLAPEN-OH
- binding result [1]: no binding
- binding result [2]: no binding

Source: patent US20120115880A1 (ST JUDE CHILDREN S RESEARCH HOSPITAL, published 2012)
